Assay results as given in PMC7614608 (Nature, 2023).

Target: T1, 6x-His-3C-EIF4A3 (human, UniProt P38919 1-411)
T1 construct: EIF4A3, human, full length; source: E. coli BL21 DE3 RIL, purified (HisTrap, HiTrapQ, Superdex 75); not shown: His6, N-terminal, kept
Test: pull-down; MBP-tagged bait (ALYREF constructs or CASC3 SELOR) mixed overnight at 4 °C with EIF4A3, Y14(66-154)–MAGOH, ssRNA and AMP-PNP in 25 mM HEPES pH 7.9, 50 mM NaCl, 5 mM MgCl2; held on amylose resin, maltose elution, SDS-PAGE with Coomassie
Settings: both partners purified

T1 sequence (P38919 whole entry): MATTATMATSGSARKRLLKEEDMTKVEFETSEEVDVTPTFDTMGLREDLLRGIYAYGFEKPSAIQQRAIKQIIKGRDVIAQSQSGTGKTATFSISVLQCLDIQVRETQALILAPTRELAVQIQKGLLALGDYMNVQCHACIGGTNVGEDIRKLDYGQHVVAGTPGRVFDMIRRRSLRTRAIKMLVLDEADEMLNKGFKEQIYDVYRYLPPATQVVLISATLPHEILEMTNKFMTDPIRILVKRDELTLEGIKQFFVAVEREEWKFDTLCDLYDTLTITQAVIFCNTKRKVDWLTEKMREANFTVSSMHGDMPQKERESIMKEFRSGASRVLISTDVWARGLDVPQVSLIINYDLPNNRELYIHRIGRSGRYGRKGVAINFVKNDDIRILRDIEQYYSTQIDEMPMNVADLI

binding result: binds
B1: 10x-His-MBP-3C-ALYREFN (ALYREF residues 1-182) (domain or fragment)
chain: not shown
notes: also called MBP-ALYREFN; source: E. coli BL21 DE3 RIL, purified (HisTrap, cation exchange, Superdex 75); not shown: His10, N-terminal, kept; MBP, N-terminal, kept
